From the RNAGym collection of RNA variant scans (doi:10.1073/pnas.2313332121)
This sample holds only a part of the variants without activity.

B1: TPR 5TU (parent)
chain: GGAUCUUCUCGAUCUAACAAAAAAGACAAAUCUGCCACAAAGCUUGAGAGCAUCUUCGGAUGCAGAGGCGGCAGCCUUCGGUGGCGCGAUAGCGCCAACGUUCUCAACUAUGACACGCAAAACGCGUGCUCCGUUGAAUGGAGUUUAUCAUG

Variants of: B1
Test: polymerase ribozyme fitness, log enrichment relative to wild type (log ratio); higher = more active; in vitro selection for triplet polymerase activity
Outline: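 Fitness is a logarithmic measure of how a genotype enriched relative to the wild type, with replicate averages weighted by inverse variance. The logarithm uses base 2, and enrichment came from Illumina sequencing of input and output libraries. Those libraries were PCR-built, transcribed mutants of each subunit of a heterodimeric triplet polymerase ribozyme, passed through one triplicate in vitro selection round that included frozen incubation at −7 °C, gel excision of extended constructs and streptavidin-bead capture. Genotypes were kept only if they had ≥10 input reads and ≥1 read per output.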

Row | Variant | polymerase ribozyme fitness (log ratio)
1 | U9C C38U C51U A52G G74C C85G G143C U145A | ≤ -4.2
2 | U9G C36U C76A G94A | ≤ -4.2
3 | C10G G46U G143C U148C | ≤ -4.2
4 | U9G C38U C54U C57A A60G | ≤ -4.2
5 | C10A G92A | -4.08
6 | C10G C18U C85G G133U A138G | ≤ -4.2
7 | C10G A73U C76A C85G | ≤ -4.2
8 | C10G G25U U55A G88A A106G U130A A150G | ≤ -4.2
9 | C10A G84U | ≤ -4.2
10 | U9C U33G A52C C93G A110U | ≤ -4.2
11 | U9G A21C C35U C85G | ≤ -4.2
12 | C10A A12U A41G C96A A107C C114A | ≤ -4.2
13 | U9G G88C C99A A119U | ≤ -4.2
14 | C10A C14U C93G C149U | ≤ -4.2
15 | U9C C38U A52U C75G G92U G94A G136U U144G | ≤ -4.2
16 | C10G U53A G83U A91U A97G C103A | ≤ -4.2
17 | C10G U55G C103A | ≤ -4.2
18 | C10A A19C A29U C36U C57U G58A A66C G67C U82G G84U U109A | ≤ -4.2
19 | C10A G81C | ≤ -4.2
20 | U9C G71A C95U U151C | ≤ -4.2
21 | U9G A16C A30C G34A G58U C93G C105A A110G C118U C149U | -4.17

Row | Variant | polymerase ribozyme fitness (log ratio)
22 | C10G G58A G59C G65A C95G C96A A120C | ≤ -4.2
23 | U9G A17U G94A | ≤ -4.2
24 | C10G G81C C87A U127C U144A U148A | ≤ -4.2
25 | C10U A26U C35U C54U A60C C95A C99U C103G A142U | ≤ -4.2
26 | C10G C18G G42U A49C G50A G74A G133C G143A | ≤ -4.2
27 | C10U C14G G34U U56G | ≤ -4.2
28 | U9G A23U G34C C57A C93A | ≤ -4.2
29 | C10A A91G C93U U144G | ≤ -4.2
30 | C10A C85G C125A | ≤ -4.2
31 | C10G G34U C85A | ≤ -4.2
32 | C10U G92A G141C | -3.99
33 | C10U C14U A19C U55A G59U A97U C105A A115U G141U U148C | ≤ -4.2
34 | C10G C32A G86U G92C G124A A137G | ≤ -4.2
35 | C10G C27U U61A C99A | ≤ -4.2
36 | C10U A40G C105G | ≤ -4.2
37 | C10G U109C A137C | ≤ -4.2
38 | U9C C54U C85A G136C | ≤ -4.2
39 | U9G C35A A39G C87A C125U G143A U151A | -3.88
40 | C10G G46A U55A G65A A73G U134A | ≤ -4.2
41 | C10G A19U G46A C85A C105U | ≤ -4.2
42 | C10G G68A C79G | ≤ -4.2

Row | Variant | polymerase ribozyme fitness (log ratio)
43 | U9G C69A U102C | ≤ -4.2
44 | C10G U13G C87U C125U | ≤ -4.2
45 | C10G U31A U44C C57A G59U U61G G92C A107U | ≤ -4.2
46 | C10G A37G G92C U135G A137G C149G | ≤ -4.2
47 | C10U C57U C96U | -3.83
48 | C10U C35U | -3.04
49 | U9G C27A C96A | ≤ -4.2
50 | C10G U55A C69G C93U C103G C116A | ≤ -4.2
51 | U9G U77C C85A C108U A120C G141C | ≤ -4.2
52 | C10G C36G A47U G65U C79G C93U C99G G126C U144C U148C | ≤ -4.2
53 | C10U A22C G46A G50A C79G C85U C105U | ≤ -4.2
54 | C10G C38A G88A A97U | ≤ -4.2
55 | C10A C95U | -3.57
56 | C10U A29U G92A C99A U145C | ≤ -4.2
57 | C10U G84A | -3.34
58 | U9G C27G U31G U61G C75G G94A C105U | ≤ -4.2
59 | C10A C27G U77C G83A | ≤ -4.2
60 | U9C A49G A106G C116U G136A A137C G143A U144C U148G | ≤ -4.2
61 | U9C A23U A24G C38G A89G A91U | ≤ -4.2
62 | C10A A16G C32G G50A G133C | ≤ -4.2
63 | U9G A37U C57U C85U G128A G141A U146A | ≤ -4.2

Row | Variant | polymerase ribozyme fitness (log ratio)
64 | C10U A22C C36A A49C U53C C57G G58A G86U C93U G117U | ≤ -4.2
65 | C10A G34U A40U C57U U78G C79U G84C C85A U104A A120C | ≤ -4.2
66 | C10U G84A U101A A115U A121G G124A | ≤ -4.2
67 | U9G A47C C57A A66C C87A A89U A120U A121U C123A C125U U144A | ≤ -4.2
68 | C10G A19G G34A A52C C54G | ≤ -4.2
69 | C10A A28G U56G C85A | ≤ -4.2
70 | C10U C18U U44G A60G G92A | ≤ -4.2
71 | C10U A24U C35U A91G C93G A98C C118U | ≤ -4.2
72 | C10U C54A G88U A115G | ≤ -4.2
73 | C10A A39U G86C U109G U130C | ≤ -4.2
74 | C10A G11A A39U C93A G141U | ≤ -4.2
75 | C10A A12G A23C U55A | ≤ -4.2
76 | C10G U13C C85G U109G A115U G140U | ≤ -4.2
77 | C10G A89C U148C | ≤ -4.2
78 | C10A G42C U44A U53A C85A A122C | ≤ -4.2
79 | C10U C93A | -3.86
80 | C10A A17U C36U C76U G84U U101A U104G C108U A121C | ≤ -4.2
81 | U9G U145C | -3.95
82 | C10G A41U | -4.05
83 | C10A A23C G25C G92A A113U | ≤ -4.2
